Measurements from the supplement of paper PMC10126150.
± gives the standard deviation of the averaged measurements.

Test system: ATP
Assay: switch fluorescence ratio, 500 uM ATP over buffer (Cy3 cluster intensity, sum of 5 cycles each) (fold (ratio)); higher = stronger signal-on switching upon ATP binding; sequences stand for … in TCGTCGGCAGCGTCAGATGTGTATAAGAGACAGTTTTTTTTTTTTTTTTTTTTTTTTT…TC
Conditions: aptamer strand: ATP DNA aptamer (quencher-CACCTGGGGGAGTATTGCGGAGGAAGG + anchor), 100 nM annealed; ATP concentration: 500 uM
Procedure, shortened: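 Exposure to 500 uM ATP lasted 15 min at 22 °C before imaging, and a selection-buffer image was taken beforehand, for Cy3-labelled switching-strand clusters on a modified Illumina MiSeq flow-cell annealed to 100 nM quencher-labelled ATP aptamer. Five buffer/ATP cycles were run with NaOH stripping and re-annealing between them. The fluorescence ratio per cluster is summed target-cycle over summed buffer-cycle Cy3 intensity, averaged per switch-domain sequence. Clusters outside 100-1000 RFU were excluded.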

Row | Sequence | switch fluorescence ratio
1 | CCCCCGGGGG | 1.91 ± 0.15
2 | CCCCCGTTCC | 1.72 ± 0.2
3 | CCCCGACTTT | 1.07 ± 0.018
4 | CCCCGTAGTC | 4.6 ± 0.3
5 | CCCCGTGTAT | 2.48 ± 0.046
6 | CCCCGTTTCG | 1.08 ± 0.046
7 | CCCCTGGAAT | 1.08 ± 0.03
8 | CCCCTTAGCG | 1.09 ± 0.0067
9 | CCCCTTGTGA | 1.72 ± 0.04
10 | CCCGAAGGTA | 1.01 ± 0.024
11 | CCCGAATCCT | 1.06 ± 0.034
12 | CCCGATGAGC | 1.05 ± 0.025
13 | CCCGCTAAGG | 1.19 ± 0.028
14 | CCCGGAGGCA | 1.057 ± 0.004
15 | CCCGGCTGGT | 0.9956 ± 0.0095
16 | CCCGGGGGT | 1.13 ± 0.2
17 | CCCGGGGTTT | 1.31 ± 0.36
18 | CCCGGGTGAT | 4 ± 0.3
19 | CCCGGGTTGT | 1.16 ± 0.12
20 | CCCGGTTTTT | 1.06 ± 0.022
21 | CCCGTATGTT | 1.03 ± 0.018
22 | CCCTAATAGA | 1.03 ± 0.026
23 | CCCTAGTGTG | 2.97 ± 2.6
24 | CCCTATATAG | 1.01 ± 0.011
25 | CCCTCTCGGT | 1.037 ± 0.0028

Row | Sequence | switch fluorescence ratio
26 | CCCTGAGGGA | 1.18 ± 0.086
27 | CCCTGGACGA | 1.07 ± 0.016
28 | CCCTGGCACT | 1.12 ± 0.005
29 | CCCTGTTCGC | 1.03 ± 0.041
30 | CCGAAATTTA | 1.19 ± 0.02
31 | CCGAAGGACT | 1.02 ± 0.072
32 | CCGAAGTCCT | 1.25 ± 0.033
33 | CCGAATCCAG | 1.111 ± 0.0099
34 | CCGAATTTT | 1.02 ± 0.037
35 | CCGAGGGGGG | 1.25 ± 0.35
36 | CCGAGGTCGT | 1.17 ± 0.066
37 | CCGAGTAGAG | 1.4 ± 0.067
38 | CCGAGTGGGT | 1.44 ± 0.57
39 | CCGAGTTAGG | 1.068 ± 0.0066
40 | CCGAGTTTTT | 1.07 ± 0.086
41 | CCGATAGATG | 1.065 ± 0.0047
42 | CCGATGATTG | 1.08 ± 0.014
43 | CCGATGGGGA | 1.156 ± 0.0049
44 | CCGATGGGGG | 1.01 ± 0.025
45 | CCGATTATTT | 0.997 ± 0.015
46 | CCGCAGGGTT | 1.51 ± 0.58
47 | CCGCCTTGTT | 1.11 ± 0.044
48 | CCGCGGGTTC | 1.55 ± 0.45
49 | CCGGAAGGGG | 1.06 ± 0.02
50 | CCGGACCACG | 1.01 ± 0.029

Row | Sequence | switch fluorescence ratio
51 | CCGGACCCAA | 1.75 ± 0.23
52 | CCGGACGCGT | 1.52 ± 0.26
53 | CCGGAGAGGT | 2.28 ± 0.23
54 | CCGGAGATTT | 1.57 ± 0.028
55 | CCGGAGGGGG | 1.05 ± 0.02
56 | CCGGATCGCG | 1.043 ± 0.0047
57 | CCGGATGGAG | 1.02 ± 0.036
58 | CCGGCGGGG | 1.04 ± 0.027
59 | CCGGCTGGTG | 1.197 ± 0.0056
60 | CCGGGAAATT | 1.22 ± 0.36
61 | CCGGGAAGGC | 2.043 ± 0.0097
62 | CCGGGAGTTG | 1.01 ± 0.024
63 | CCGGGATGGG | 1.03 ± 0.022
64 | CCGGGCGGTG | 1.04 ± 0.021
65 | CCGGGCTGGA | 1.08 ± 0.074
66 | CCGGGGCACT | 1.34 ± 0.26
67 | CCGGGGCCTA | 1.05 ± 0.026
68 | CCGGGGGGTG | 1.07 ± 0.066
69 | CCGGGGTAAG | 1.03 ± 0.029
70 | CCGGGTAGTA | 1.12 ± 0.11
71 | CCGGGTGGG | 1.01 ± 0.062
72 | CCGGGTGTTT | 1.63 ± 0.75
73 | CCGGGTTGGG | 1.02 ± 0.036
74 | CCGGGTTTAC | 1.621 ± 0.013
75 | CCGGTGCGGC | 1.48 ± 0.23

Row | Sequence | switch fluorescence ratio
76 | CCGGTGCTCG | 1.04 ± 0.047
77 | CCGGTTACAG | 1.07 ± 0.0078
78 | CCGGTTGAGA | 1 ± 0.016
79 | CCGGTTTTTG | 1.01 ± 0.05
80 | CCGTAACGGA | 0.972 ± 0.012
81 | CCGTAAGGAA | 1.06 ± 0.11
82 | CCGTAGCGTT | 6.12 ± 1.5
83 | CCGTAGGGCT | 1.05 ± 0.042
84 | CCGTATCCCT | 1.03 ± 0.043
85 | CCGTATTGGT | 1.03 ± 0.039
86 | CCGTCAGGCG | 1.039 ± 0.0067
87 | CCGTCCGGTT | 1.16 ± 0.018
88 | CCGTCTACTG | 1.04 ± 0.013
89 | CCGTGCACGG | 0.978 ± 0.021
90 | CCGTGCAGTA | 3.14 ± 1.2
91 | CCGTGGGGTA | 0.974 ± 0.031
92 | CCGTGTATGT | 1.045 ± 0.0062
93 | CCGTGTGACT | 1.08 ± 0.042
94 | CCGTGTTCTA | 1.03 ± 0.063
95 | CCGTGTTGCT | 1.12 ± 0.061
96 | CCGTTACATG | 1.05 ± 0.017
97 | CCGTTCTTAC | 2.84 ± 1.1
98 | CCGTTGAAGG | 1.01 ± 0.016
99 | CCGTTGAGGG | 1.01 ± 0.086
100 | CCGTTGCGTG | 1 ± 0.036

Row | Sequence | switch fluorescence ratio
101 | CCGTTGCTTT | 1.35 ± 0.14
102 | CCGTTGGTGG | 0.983 ± 0.024
103 | CCGTTGTGAA | 1.043 ± 0.0012
104 | CCGTTTAAAA | 1.11 ± 0.15
105 | CCGTTTAGGG | 0.999 ± 0.016
106 | CCGTTTTTGG | 0.993 ± 0.016
107 | CCTAACCTCT | 1.01 ± 0.032
108 | CCTAATGAA | 1.2 ± 0.28
109 | CCTAATGTAA | 1.08 ± 0.027
110 | CCTACATGTG | 1.26 ± 0.11
111 | CCTACCGTGG | 1.31 ± 0.11
112 | CCTACGGGCC | 2.16 ± 0.12
113 | CCTAGATAAC | 1.16 ± 0.039
114 | CCTAGGGCGG | 1.006 ± 0.0011
115 | CCTAGGGGAG | 1.04 ± 0.04
116 | CCTAGGGGGA | 1.05 ± 0.021
117 | CCTAGGGTGG | 1.03 ± 0.069
118 | CCTAGGGTTA | 1.01 ± 0.074
119 | CCTAGGTTTC | 0.981 ± 0.035
120 | CCTATAGTAC | 1.69 ± 0.05
121 | CCTATCGAAT | 1.97 ± 1.1
122 | CCTATCGTTG | 1.08 ± 0.0056
123 | CCTATTAAAC | 1.04 ± 0.036
124 | CCTCACAGTT | 1.24 ± 0.096
125 | CCTCAGACAG | 1.58 ± 0.052

Row | Sequence | switch fluorescence ratio
126 | CCTCAGCAGA | 3.75 ± 0.53
127 | CCTCATGCCA | 2.3 ± 0.11
128 | CCTCGAGACT | 1.43 ± 0.032
129 | CCTCGGCGGT | 2.47 ± 1.7
130 | CCTCGGTTGG | 1.011 ± 0.0035
131 | CCTCGTTAGC | 2.63 ± 0.13
132 | CCTCTATGAT | 1.42 ± 0.044
133 | CCTCTGGGAT | 2.24 ± 1.7
134 | CCTGAAGGCA | 1 ± 0.011
135 | CCTGAGGGTT | 0.985 ± 0.0069
136 | CCTGATAATT | 1.02 ± 0.02
137 | CCTGATAGCG | 1.05 ± 0.03
138 | CCTGGATTGC | 1.24 ± 0.093
139 | CCTGGCTTTT | 1.047 ± 0.007
140 | CCTGGGCAAG | 3.81 ± 0.36
141 | CCTGGGCCTT | 1.01 ± 0.025
142 | CCTGGGGAAT | 1.91 ± 1.1
143 | CCTGGGGCTG | 1.12 ± 0.14
144 | CCTGGGGGGT | 1.06 ± 0.13
145 | CCTGGGTAGC | 1.1 ± 0.045
146 | CCTGTAATGT | 1.12 ± 0.042
147 | CCTGTAGGCC | 0.998 ± 0.027
148 | CCTGTGGACG | 0.914 ± 0.048
149 | CCTGTGTAGC | 1.092 ± 0.0031
150 | CCTGTTCGCT | 1.21 ± 0.014

Row | Sequence | switch fluorescence ratio
151 | CCTGTTCGGC | 1.02 ± 0.038
152 | CCTGTTGGGG | 0.991 ± 0.039
153 | CCTGTTTTTT | 1.02 ± 0.022
154 | CCTTAATTTT | 1.01 ± 0.019
155 | CCTTAGTGTT | 1.03 ± 0.015
156 | CCTTCTGCCG | 1.203 ± 0.0042
157 | CCTTCTGGGG | 1.12 ± 0.051
158 | CCTTGAAAGG | 1 ± 0.011
159 | CCTTGAATCG | 0.978 ± 0.023
160 | CCTTGAGGGA | 1.06 ± 0.11
161 | CCTTGGACGG | 1.03 ± 0.02
162 | CCTTGGATTG | 0.9851 ± 0.0018
163 | CCTTGGGACG | 0.992 ± 0.062
164 | CCTTGGTCTT | 0.9979 ± 0.009
165 | CCTTGTGCAG | 1.25 ± 0.018
166 | CCTTGTTATC | 1.1 ± 0.1
167 | CCTTTCGGCT | 1.068 ± 0.0038
168 | CCTTTGGAGG | 0.981 ± 0.016
169 | CCTTTGGTTA | 1.03 ± 0.028
170 | CCTTTGGTTT | 0.982 ± 0.013
171 | CCTTTTACTT | 1.03 ± 0.032
172 | CCTTTTGGGG | 1.03 ± 0.061
173 | CCTTTTTGTC | 1.12 ± 0.06
174 | CCTTTTTTAT | 1.03 ± 0.085
175 | CCTTTTTTTT | 1.01 ± 0.011

Row | Sequence | switch fluorescence ratio
176 | CGAAAAGGAG | 1.01 ± 0.015
177 | CGAAAATCTT | 0.9949 ± 0.0095
178 | CGAAACTTTG | 0.974 ± 0.046
179 | CGAAAGCGGC | 1.23 ± 0.014
180 | CGAAATCGGG | 1.02 ± 0.018
181 | CGAACCGGCG | 1.03 ± 0.017
182 | CGAACGCCTG | 1.1 ± 0.036
183 | CGAACTGAGG | 0.985 ± 0.014
184 | CGAACTGCGT | 1.02 ± 0.034
185 | CGAAGAGGTG | 1.07 ± 0.021
186 | CGAAGCTTTT | 1.089 ± 0.003
187 | CGAAGGAATC | 1.78 ± 1.1
188 | CGAAGGATTT | 1.003 ± 0.0041
189 | CGAAGGCGTG | 1 ± 0.018
190 | CGAAGGGGAA | 1.03 ± 0.099
191 | CGAAGGGGTA | 0.987 ± 0.018
192 | CGAAGGTTAG | 0.987 ± 0.024
193 | CGAAGGTTGC | 1.01 ± 0.04
194 | CGAAGGTTTG | 0.945 ± 0.058
195 | CGAAGTCGGG | 0.955 ± 0.015
196 | CGAAGTCGTC | 1.02 ± 0.021
197 | CGAAGTCTTT | 0.989 ± 0.044
198 | CGAAGTTATA | 1.19 ± 0.038
199 | CGAATATAAA | 0.994 ± 0.054
200 | CGAATATACG | 1.04 ± 0.021
